According to doi:10.1101/317909:

Target: T1, ZC3H12B PIN-ZnF fragment (human, UniProt Q5HYM0 179-397)
T1 sequence: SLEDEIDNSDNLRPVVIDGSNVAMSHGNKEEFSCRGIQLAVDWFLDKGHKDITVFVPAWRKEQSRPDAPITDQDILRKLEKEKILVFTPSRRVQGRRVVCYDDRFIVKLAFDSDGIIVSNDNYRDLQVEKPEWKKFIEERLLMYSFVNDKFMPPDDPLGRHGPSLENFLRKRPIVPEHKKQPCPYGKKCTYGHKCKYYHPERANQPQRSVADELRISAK
Assay: X-ray crystallography

B1: 21-nt HTR-SELEX-enriched RNA (ssRNA)
RNA: AAUGCGACAGUCGGUAGCAUC
modifications: phosphorothioate bond between nt 1 and 2 (5' end)
Does B1 bind?
Result: binds
